Experimental findings from paper PMC8897273 (Journal of molecular biology, 2022) are described below.

The target in the series is PABP1;eIF4G1 (88-653) (Homo sapiens;Homo sapiens, UniProt P11940;Q04637 1-636;88-653, |). Kind of series: EMSA. For orientation: In EMSA bound probe runs differently from free probe, usually more slowly.
Sequence of PABP1;eIF4G1 (88-653) (P11940 whole entry, chain 1 of 2): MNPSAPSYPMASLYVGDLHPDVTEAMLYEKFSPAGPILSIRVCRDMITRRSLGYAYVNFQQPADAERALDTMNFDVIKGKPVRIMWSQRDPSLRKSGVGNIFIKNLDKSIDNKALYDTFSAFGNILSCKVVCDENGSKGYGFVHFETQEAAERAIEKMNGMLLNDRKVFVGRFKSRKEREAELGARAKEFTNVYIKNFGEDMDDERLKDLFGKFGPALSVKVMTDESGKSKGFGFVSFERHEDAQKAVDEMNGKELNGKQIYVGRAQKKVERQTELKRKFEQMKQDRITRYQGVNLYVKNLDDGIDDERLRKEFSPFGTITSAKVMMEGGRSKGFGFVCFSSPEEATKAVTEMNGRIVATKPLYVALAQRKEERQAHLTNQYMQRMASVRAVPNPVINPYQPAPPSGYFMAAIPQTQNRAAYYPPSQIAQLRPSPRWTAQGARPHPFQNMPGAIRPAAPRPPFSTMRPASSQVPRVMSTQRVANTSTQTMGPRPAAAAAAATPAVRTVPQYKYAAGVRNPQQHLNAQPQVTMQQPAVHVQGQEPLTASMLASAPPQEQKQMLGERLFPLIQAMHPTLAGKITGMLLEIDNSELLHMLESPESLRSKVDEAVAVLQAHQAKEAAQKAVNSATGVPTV
Sequence of PABP1;eIF4G1 (88-653) (Q04637 88-653, chain 2 of 2): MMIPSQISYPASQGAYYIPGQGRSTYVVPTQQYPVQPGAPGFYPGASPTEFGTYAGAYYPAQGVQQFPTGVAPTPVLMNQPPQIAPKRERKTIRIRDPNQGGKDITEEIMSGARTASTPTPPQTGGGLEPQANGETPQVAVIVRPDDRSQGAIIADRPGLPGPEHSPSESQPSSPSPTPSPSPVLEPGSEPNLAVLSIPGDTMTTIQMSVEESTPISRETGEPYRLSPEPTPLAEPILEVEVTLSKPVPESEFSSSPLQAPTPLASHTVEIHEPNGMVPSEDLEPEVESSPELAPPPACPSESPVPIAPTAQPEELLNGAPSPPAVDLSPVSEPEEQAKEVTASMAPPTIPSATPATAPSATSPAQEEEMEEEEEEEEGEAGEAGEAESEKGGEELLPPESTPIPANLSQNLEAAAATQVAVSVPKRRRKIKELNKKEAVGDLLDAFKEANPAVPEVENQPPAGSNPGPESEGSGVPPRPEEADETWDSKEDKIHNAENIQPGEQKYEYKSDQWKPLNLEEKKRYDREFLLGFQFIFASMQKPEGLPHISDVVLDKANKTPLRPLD

Regarding AAAAAAAAAAAAAAAAAA (ssRNA) [Poly(A)18], the binding result is recorded as “binds”.
